According to the supplement of paper PMC10567573:

B1: KRT18 (parent)
chain: PQVRDWSHYFKIIEDLRAQIFANT

Variants of: B1
Assay: protein stability index of a GFP-peptide fusion (GPS, HEK-293T) (PSI 1-6); higher = more stable
Settings: c terminus: a fixed tail appended
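Note: lentivirally expressed fusions sorted by FACS into six bins by GFP to DsRed ratio, PSI derived from sequencing read proportions per bin multiplied by bin number.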

Going from PQVRDWSHYFKIIEDLRFQIFANT [A18F] to PQVRDWSHYFKIIEDLREQIFANT [A18E], the protein stability index rises from 2.24 to 2.7.

Compared with PQVRDWSHYFKIIEDLRWQIFANT [A18W], PQVRDWSHYFKIIEDLRGQIFANT [A18G] is lower in protein stability index: 2.34 for the first, 1.9 for the second.

Compared with PQVRDWSHYFKIIEDLRRQIFANT [A18R], PQVRDWSHYFKIIEDLRLQIFANT [A18L] is lower in protein stability index: 2.44 for the first, 2.29 for the second.

First: PQVRDWSHYFKIIEDLRSQIFANT [A18S]
Second: PQVRDWSHYFKIIEDLRCQIFANT [A18C]
The protein stability index of the first is higher: 2.25 for the first, 1.94 for the second.

First: PQVRDWSHYFKIIEDLRDQIFANT [A18D]
Second: PQVRDWSHYFKIIEDLRPQIFANT [A18P]
The protein stability index of the first is higher: 2.44 for the first, 2.15 for the second.

Going from PQVRDWSHYFKIIEDLRHQIFANT [A18H] to PQVRDWSHYFKIIEDLRIQIFANT [A18I], the protein stability index rises from 1.88 to 2.13.

Compared with PQVRDWSHYFKIIEDLRQQIFANT [A18Q], PQVRDWSHYFKIIEDLRYQIFANT [A18Y] is lower in protein stability index: 2.02 for the first, 1.77 for the second.

Going from PQVRDWSHYFKIIEDLRTQIFANT [A18T] to PQVRDWSHYFKIIEDLRMQIFANT [A18M], the protein stability index rises from 1.48 to 1.81.

First: PQVRDWSHYFKIIEDLRKQIFANT [A18K]
Second: PQVRDWSHYFKIIEDLRVQIFANT [A18V]
The protein stability index of the first is higher: 2.68 for the first, 1.97 for the second.

Compared with PQVRDWSHYFKIIEDLRNQIFANT [A18N], PQVRDWSHYFKIIEDLRAQIFRNT [A22R] is lower in protein stability index: 2.8 for the first, 1.99 for the second.

Compared with PQVRDWSHYFKIIEDLRAQIFENT [A22E], PQVRDWSHYFKIIEDLRAQIFTNT [A22T] is higher in protein stability index: 2.12 for the first, 2.14 for the second.

First: PQVRDWSHYFKIIEDLRAQIFNNT [A22N]
Second: PQVRDWSHYFKIIEDLRAQIFHNT [A22H]
The protein stability index of the first is higher: 2.53 for the first, 2 for the second.

Going from PQVRDWSHYFKIIEDLRAQIFQNT [A22Q] to PQVRDWSHYFKIIEDLRAQIFMNT [A22M], the protein stability index falls from 2.72 to 2.37.

Compared with PQVRDWSHYFKIIEDLRAQIFFNT [A22F], PQVRDWSHYFKIIEDLRAQIFPNT [A22P] is higher in protein stability index: 1.8 for the first, 2.4 for the second.

Compared with PQVRDWSHYFKIIEDLRAQIFLNT [A22L], PQVRDWSHYFKIIEDLRAQIFINT [A22I] is higher in protein stability index: 1.45 for the first, 2.5 for the second.

Compared with PQVRDWSHYFKIIEDLRAQIFCNT [A22C], PQVRDWSHYFKIIEDLRAQIFDNT [A22D] is higher in protein stability index: 1.9 for the first, 2.49 for the second.

Compared with PQVRDWSHYFKIIEDLRAQIFSNT [A22S], PQVRDWSHYFKIIEDLRAQIFKNT [A22K] is lower in protein stability index: 2.17 for the first, 2.1 for the second.

Compared with PQVRDWSHYFKIIEDLRAQIFGNT [A22G], PQVRDWSHYFKIIEDLRAQEFANT [I20E] is higher in protein stability index: 2.51 for the first, 2.86 for the second.

Going from PQVRDWSHYFKIIEDLRAQDFANT [I20D] to PQVRDWSHYFKIIEDLRAQMFANT [I20M], the protein stability index falls from 2.59 to 2.15.

Compared with PQVRDWSHYFKIIEDLRAQGFANT [I20G], PQVRDWSHYFKIIEDLRAQHFANT [I20H] is lower in protein stability index: 2.9 for the first, 1.89 for the second.

Compared with PQVRDWSHYFKIIEDLRAQVFANT [I20V], PQVRDWSHYFKIIEDLRAQLFANT [I20L] is lower in protein stability index: 2.08 for the first, 2 for the second.

Compared with PQVRDWSHYFKIIEDLRAQRFANT [I20R], PQVRDWSHYFKIIEDLRAQNFANT [I20N] is higher in protein stability index: 2.75 for the first, 3.05 for the second.

First: PQVRDWSHYFKIIEDLRAQAFANT [I20A]
Second: PQVRDWSHYFKIIEDLRAQWFANT [I20W]
The protein stability index of the first is higher: 2.07 for the first, 1.62 for the second.

First: PQVRDWSHYFKIIEDLRAQPFANT [I20P]
Second: PQVRDWSHYFKIIEDLRAQYFANT [I20Y]
The protein stability index of the first is lower: 1.91 for the first, 2.16 for the second.

Going from PQVRDWSHYFKIIEDLRAQQFANT [I20Q] to PQVRDWSHYFKIIEDLRAQTFANT [I20T], the protein stability index rises from 2.09 to 2.83.

Compared with PQVRDWSHYFKIIEDLRAQSFANT [I20S], PQVRDWSHYFKIIEDLRAQCFANT [I20C] is lower in protein stability index: 2.17 for the first, 1.86 for the second.

First: PQVRDWSHYFKIIEDLRAQKFANT [I20K]
Second: PQVRDWSHYFKIIEDLRAQFFANT [I20F]
The protein stability index of the first is higher: 2.7 for the first, 2.22 for the second.

First: PQVRDWSHYFKIIEDLRAQILANT [F21L]
Second: PQVRDWSHYFKIIEDLRAQIKANT [F21K]
The protein stability index of the first is lower: 2.7 for the first, 2.98 for the second.

First: PQVRDWSHYFKIIEDLRAQISANT [F21S]
Second: PQVRDWSHYFKIIEDLRAQIWANT [F21W]
The protein stability index of the first is higher: 2.32 for the first, 1.84 for the second.

Going from PQVRDWSHYFKIIEDLRAQIRANT [F21R] to PQVRDWSHYFKIIEDLRAQIVANT [F21V], the protein stability index rises from 2.33 to 2.39.

First: PQVRDWSHYFKIIEDLRAQIGANT [F21G]
Second: PQVRDWSHYFKIIEDLRAQIIANT [F21I]
The protein stability index of the first is higher: 2.52 for the first, 1.91 for the second.

Going from PQVRDWSHYFKIIEDLRAQIAANT [F21A] to PQVRDWSHYFKIIEDLRAQIQANT [F21Q], the protein stability index falls from 2.83 to 2.46.

Compared with PQVRDWSHYFKIIEDLRAQINANT [F21N], PQVRDWSHYFKIIEDLRAQIYANT [F21Y] is higher in protein stability index: 2.46 for the first, 3.6 for the second.

First: PQVRDWSHYFKIIEDLRAQIEANT [F21E]
Second: PQVRDWSHYFKIIEDLRAQIDANT [F21D]
The protein stability index of the first is lower: 2.98 for the first, 3.27 for the second.

Compared with PQVRDWSHYFKIIEDLRAQIMANT [F21M], PQVRDWSHYFKIIEDLRAQIPANT [F21P] is lower in protein stability index: 2.16 for the first, 2.15 for the second.

PQVRDWSHYFKIIEDLRAQICANT [F21C] and PQVRDWSHYFKIIEDLRAQITANT [F21T] are the same in protein stability index: 1.97 for the first, 1.97 for the second.

Compared with PQVRDWSHYFKIIEDLRAQIHANT [F21H], PQVRDWSHYFKIIEDLRAPIFANT [Q19P] is lower in protein stability index: 2.4 for the first, 1.97 for the second.

Going from PQVRDWSHYFKIIEDLRAHIFANT [Q19H] to PQVRDWSHYFKIIEDLRAVIFANT [Q19V], the protein stability index falls from 2.09 to 1.59.

Going from PQVRDWSHYFKIIEDLRARIFANT [Q19R] to PQVRDWSHYFKIIEDLRAEIFANT [Q19E], the protein stability index rises from 2.45 to 2.62.

First: PQVRDWSHYFKIIEDLRAMIFANT [Q19M]
Second: PQVRDWSHYFKIIEDLRAKIFANT [Q19K]
The protein stability index of the first is lower: 1.89 for the first, 2.12 for the second.

Going from PQVRDWSHYFKIIEDLRASIFANT [Q19S] to PQVRDWSHYFKIIEDLRANIFANT [Q19N], the protein stability index falls from 2.67 to 2.56.

Going from PQVRDWSHYFKIIEDLRACIFANT [Q19C] to PQVRDWSHYFKIIEDLRATIFANT [Q19T], the protein stability index rises from 1.86 to 2.8.

Going from PQVRDWSHYFKIIEDLRAYIFANT [Q19Y] to PQVRDWSHYFKIIEDLRALIFANT [Q19L], the protein stability index rises from 1.65 to 1.79.

Compared with PQVRDWSHYFKIIEDLRAAIFANT [Q19A], PQVRDWSHYFKIIEDLRAIIFANT [Q19I] is lower in protein stability index: 2.05 for the first, 1.42 for the second.

Compared with PQVRDWSHYFKIIEDLRAFIFANT [Q19F], PQVRDWSHYFKIIEDLRAWIFANT [Q19W] is higher in protein stability index: 1.7 for the first, 2.39 for the second.

Compared with PQVRDWSHYFKIIEDLRADIFANT [Q19D], PQVRDWSHYFKIIEDLRAGIFANT [Q19G] is lower in protein stability index: 2.49 for the first, 2.34 for the second.

Compared with PQVRDWSHYFKIIEDLYAQIFANT [R17Y], PQVRDWSHYFKIIEDLWAQIFANT [R17W] is higher in protein stability index: 1.51 for the first, 1.97 for the second.
